Assay results taken from patent US20030013152A1 (University of Texas, published 2003).

T1: recombinant histidine-tagged human ALF (TFIIAα/β-like factor) polypeptide, residues Val7 to Trp478 (human, UniProt Q9UNN4 7-478)
T1 construct: 479 amino acid polypeptide expressed in E. coli from pRSET-ALF, purified under denaturing conditions on Ni-NTA and renatured; migrates at 69 kD; also called p69; p69 (ALF)
T1 sequence: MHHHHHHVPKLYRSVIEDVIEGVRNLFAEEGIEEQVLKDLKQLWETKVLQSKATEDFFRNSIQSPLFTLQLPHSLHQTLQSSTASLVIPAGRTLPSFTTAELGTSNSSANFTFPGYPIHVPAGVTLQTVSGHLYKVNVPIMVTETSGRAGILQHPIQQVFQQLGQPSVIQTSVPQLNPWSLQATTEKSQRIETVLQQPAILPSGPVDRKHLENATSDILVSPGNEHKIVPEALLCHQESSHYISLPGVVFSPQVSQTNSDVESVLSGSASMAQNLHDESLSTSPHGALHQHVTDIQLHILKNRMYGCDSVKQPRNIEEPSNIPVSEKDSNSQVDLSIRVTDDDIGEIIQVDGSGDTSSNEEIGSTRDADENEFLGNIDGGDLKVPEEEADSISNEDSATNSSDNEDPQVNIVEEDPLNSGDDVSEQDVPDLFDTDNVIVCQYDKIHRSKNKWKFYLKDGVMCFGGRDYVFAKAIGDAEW

T2: recombinant rat TFIIAα/β (p55) subunit (rat, UniProt O08949 1-377)
T2 construct: also called rat p55
T2 sequence (looked up): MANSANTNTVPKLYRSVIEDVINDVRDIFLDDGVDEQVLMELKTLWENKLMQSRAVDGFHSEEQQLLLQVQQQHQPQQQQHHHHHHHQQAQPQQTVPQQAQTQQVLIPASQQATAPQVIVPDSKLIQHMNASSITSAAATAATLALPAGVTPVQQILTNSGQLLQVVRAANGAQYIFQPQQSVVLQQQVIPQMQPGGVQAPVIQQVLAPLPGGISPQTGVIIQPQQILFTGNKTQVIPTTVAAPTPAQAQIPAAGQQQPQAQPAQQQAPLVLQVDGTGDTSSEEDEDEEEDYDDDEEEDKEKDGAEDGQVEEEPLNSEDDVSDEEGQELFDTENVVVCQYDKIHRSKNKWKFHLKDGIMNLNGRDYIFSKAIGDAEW

T3: ALF/γ: recombinant human ALF (p69) together with recombinant rat TFIIAγ (p12) (human; rat, UniProt O08950 1-109)
T3 construct: also called ALF (p69) and TFIIAγ (p12)
T3 sequence 1: T1 sequence
T3 sequence 2: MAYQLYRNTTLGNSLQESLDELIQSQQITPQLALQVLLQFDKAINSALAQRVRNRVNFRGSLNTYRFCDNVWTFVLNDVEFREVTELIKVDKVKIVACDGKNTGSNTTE

T4: TFIIAα/β/γ: recombinant rat TFIIAα/β (p55) together with recombinant rat TFIIAγ (p12) (rat, UniProt O08949 1-377; O08950 1-109)
T4 construct: also called TFIIAα/β (p55) and TFIIAγ (p12)
T4 sequence (looked up) 1: T2 sequence (looked up)
T4 sequence (looked up) 2: T3 sequence 2

B1: recombinant rat TFIIAγ (p12) subunit (other, UniProt O08950 1-109, looked up)
chain: T3 sequence 2
notes: also called rat p12; p12 (TFIIAγ)
B2: recombinant histidine-tagged human TATA binding protein (TBP) (other, UniProt P20226 1-339, looked up)
chain: MDQNNSLPPYAQGLASPQGAMTPGIPIFSPMMPYGTGLTPQPIQNTNSLSILEEQQRQQQQQQQQQQQQQQQQQQQQQQQQQQQQQQQQQQQQQQAVAAAAVQQSTSQQATQGTSGQAPQLFHSQTLTTAPLPGTTPLYPSPMTPMTPITPATPASESSGIVPQLQNIVSTVNLGCKLDLKTIALRARNAEYNPKRFAAVIMRIREPRTTALIFSSGKMVCTGAKSEEQSRLAARKYARVVQKLGFPAKFLDFKIQNMVGSCDVKFPIRLEGLVLTHQQFSSYEPELFPGLIYRMIKPRIVLLIFVSGKVVLTGAKVRAEIYEAFENIYPILKGFRKTT
notes: In the mobility shift assay TBP stood together with a labelled AdML TATA oligonucleotide (-40 to -16); also called human TBP; not shown: histidine tag

How the values were obtained:
[1] = molecular target: T1, recombinant histidine-tagged human ALF …; assay: electrophoretic mobility shift assay; both subunits stand in one complex with TBP and DNA
Method: (§1) Mobility shift assays were performed using 10 fmol of a [γ-³²P] ATP kinase-labeled TATA-containing an oligonucleotide that spans nucleotides −40 to −16 of the Adenovirus Major Late (AdML) promoter. Binding reactions (25 μl final volume) were performed in 10 mM HEPES (pH 7.9), 2% (wt/vol) PEG-8000, 60 mM KCl, 5 mM DTT, 0.2 mM EDTA, 5 mM ammonium sulfate, 4 mM MgC1₂, and 8% glycerol. Recombinant rat p55 (30 ng; 29 nM), rat p12 (1.1 ug; 3.5 uM), human ALF (180 ng; 137 nM) and human TBP (125 ng; 133 nM) were added to reactions as indicated. Reactions were incubated for 30 minutes at room temperature, and complexes are separated on native 5% polyacrylamide gels containing 0.5×TBE and 5% glycerol. Competition experiments contain either cold AdML TATA or SP1 oligonucleotides, and antibody supershift reactions contain 2-4 μl of rabbit polyclonal antiserum raised against the 55 kD hTFIIAα/β polypeptide (3).
(§2) The activity of polypeptides was tested in electrophoretic mobility shift assays under conditions in which TATA-Binding Protein (TBP) alone is unable to bind DNA (FIG. 12B, lane 1). The presence of TFIIAα/β (p55) and TFIIAγ (p12) stabilized the TBP-DNA interaction via TFIIAα/β/γ-TBP-DNA complex formation (lane 2). Likewise, the recombinant ALF (p69) polypeptide, in conjunction with the TFIIAγ (p12) subunit, was able to form ALF/γ-TBP-DNA complexes (lane 5). […]

[2] = molecular target: T2, recombinant rat TFIIAα/β (p55) subunit; assay: as above
Method: as §1, §2

[3] = molecular target: T3, ALF/γ: recombinant human ALF (p69) …; assay: electrophoretic mobility shift assay on labelled AdML TATA oligonucleotide, under conditions in which TBP alone does not bind DNA
Method: as §1, §2

[4] = molecular target: T4, TFIIAα/β/γ: recombinant rat TFIIAα/β …; assay: as above
Method: as §1, §2

| Binder | binding result [1] | binding result [2] | binding result [3] | binding result [4] |
| --- | --- | --- | --- | --- |
| B1 | binds | binds | – | – |
| B2 | – | – | binds | binds |
